Reference: patent US20140256640A1 (PAION DEUTSCHLAND, published 2014)

Biological target: human thrombin (human, UniProt P00734 328-622)
Assay: equilibrium titration of thrombin (20 nM) with thrombomodulin in solution, read by the change in fluorescence of the thrombin inhibitor DAPA, fitted by nonlinear regression
Description: A solution containing thrombin (20 nM), thrombomodulin (1.54 μM), and DAPA (20 nM, dansylarginine N-3-(ethyl-1,5-pentanediyl)amide, a fluorescent, reversible thrombin inhibitor) in 0.02 M Tris-HCl, 0.15 M NaCl, 5.0 mM CaCl₂, 0.01% Tween 80, pH 7.4, was added in small successive aliquots to an otherwise identical solution that lacked thrombomodulin. The additions were performed in a cuvette fitted with a magnetic stirrer in the sample compartment of a Perkin-Elmer model LS50B spectrofluorimeter. Intensity values were continuously recorded with excitation and emission wavelengths of 280 and 545 nm, respectively. A 430-nm cut-off filter was used in the emission beam. The intensity of fluorescence, I, was assumed to be the sum of intensities from thrombin-DAPA (T·D) and thrombin-thrombomodulin-DAPA (T·TM·D). That is, I=i₁·[T·D]+i₂·[T·TM·D], where i₁ and i₂ are the coefficients of fluorescence for T·D and T·TM·D (since excitation was at 280 nm, the emission from free DAPA was negligible).
Therefore, with KTM defined as the dissociation constant for the thrombin-thrombomodulin interaction, [T][TM]=KTM[T·TM]; [T·D][TM]=KTM[T·TM·D]; and ([T]+[T·D])·[TM]=KTM([T·TM]+[T·TM·D]). The last expression is identical to f·[TM]=KTM·b. Since f=1−b and [TM]=[TM]₀−b[T]₀, where [TM]₀ is the total thrombomodulin concentration, the following equation is obtained: (1−b)([TM]₀−b·[T]₀)=KTM·b. […]

Kd: 0.023 µM
B1: Solulin (recombinant human soluble thrombomodulin) (receptor)
chain: EPQPGGSQCVEHDCFALYPGPATFLNASQICDGLRGHLMTVRSSVAADVISLLLNGDGGVGRRRLWIGLQLPPGCGDPKRLGPLRGFQWVTGDNNTSYSRWARLDLNGAPLCGPLCVAVSAAEATVPSEPIWEEQQCEVKADGFLCEFHFPATCRPLAVEPGAAAAAVSITYGTPFAARGADFQALPVGSSAAVAPLGLQLMCTAPPGAVQGHWAREAPGAWDCSVENGGCEHACNAIPGAPRCQCPAGAALQADGRSCTASATQSCNDLCEHFCVPNPDQPGSYSCMCETGYRLAADQHRCEDVDDCILEPSPCPQRCVNTQGGFECHCYPNYDLVDGECVEPVDPCFRANCEYQCQPLNQTSYLCVCAEGFAPIPHEPHRCQLFCNQTACPADCDPNTQASCECPEGYILDDGFICTDIDECENGGFCSGVCHNLPGTFECICGPDSALAGQIGTDCDSGKVDGGDSGAGEPPPSPTPGSTLTPP
notes: Obtained from PAION Deutschland GmbH; also called sTM; recombinant soluble thrombomodulin
